For three molecules, Kd results are on record in patent US20040192900A1 (published 2004).

Changes are numbered by the printed parent chain. Numbers in names are those of the source.

The target in this assay is CD22mFc (UniProt P20273 20-687). The experiment in a line: Biacore. (SPR reads the build-up and loss of mass on a sensor chip optically.)

B1: chimeric 5/44 variant K60R (antibody, V domains shown)
VH: EVQLQQSGTVLARPGASVKMSCKASGYRFTNYWIHWVKQRPGQGLEWIGGINPGNNYTTYRRNLKGKATLTAVTSASTAYMDLSSLTSEDSAVYYCTREGYGNYGAWFAYWGQGTLVTVSS
VL: DVVVTQTPLSLPVSFGDQVSISCRSSQSLANSYGNTFLSWYLHKPGQSPQLLIYGISNRFSGVPDRFTGSGSGTDFTLKISTIKPEDLGMYYCLQGTHQPYTFGGGTKLEIKR
The term Kd denotes the free concentration of one partner at which half of the binding sites on the other are occupied at equilibrium, for simple one-to-one binding. Read a low Kd as higher affinity. Molecule B1 displayed a Kd of 0.204 nM.

B2: chimeric 5/44 variant T57A (antibody, V domains shown)
VH: B1 VH with T58A, R61K
VL: B1 VL
Consider B2, for which the Kd came to 0.066 nM.

B3: chimeric 5/44 variant N55Q (antibody, V domains shown)
VH: B1 VH with N56Q, R61K
VL: B1 VL
As to B3, the affinity, expressed as Kd, was 0.327 nM.
